Reference: the supplement of paper PMC10126150
± gives the standard deviation of the averaged measurements.

The sequences below were run on ATP (assay: switch fluorescence ratio, 500 uM ATP over buffer (Cy3 cluster intensity, sum of 5 cycles each) (fold (ratio)); higher = stronger signal-on switching upon ATP binding; sequences stand for … in TCGTCGGCAGCGTCAGATGTGTATAAGAGACAGTTTTTTTTTTTTTTTTTTTTTTTTT…TC). Details: aptamer strand: ATP DNA aptamer (quencher-CACCTGGGGGAGTATTGCGGAGGAAGG + anchor), 100 nM annealed; ATP concentration: 500 uM.
Summary of the method: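 Exposure to 500 uM ATP lasted 15 min at 22 °C before imaging, and a selection-buffer image was taken beforehand, for Cy3-labelled switching-strand clusters on a modified Illumina MiSeq flow-cell annealed to 100 nM quencher-labelled ATP aptamer. Five buffer/ATP cycles were run with NaOH stripping and re-annealing between them. The fluorescence ratio per cluster is summed target-cycle over summed buffer-cycle Cy3 intensity, averaged per switch-domain sequence. Clusters outside 100-1000 RFU were excluded.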
TAGGGAGGCA gave a switch fluorescence ratio of 1.01 ± 0.028.
AAGTGTAAAA gave a switch fluorescence ratio of 1 ± 0.038.
For TGGTTGCTAA, the switch fluorescence ratio was 1.01 ± 0.02.
GCGTTACGGG was tested, and the switch fluorescence ratio was 1.002 ± 0.0089.
TTTATATATT showed a switch fluorescence ratio of 1.01 ± 0.028.
GGGGCTATGG was tested, and the switch fluorescence ratio was 1.02 ± 0.045.
In the case of TTGCCTTCCG, the switch fluorescence ratio is reported as 2.17 ± 0.27.
For TAATAATGGA, the switch fluorescence ratio was 1.01 ± 0.035.
With GTGGTTTGTG the switch fluorescence ratio was 1 ± 0.011.
With GGCTTAGCAT the switch fluorescence ratio was 1.02 ± 0.037.
With AGCTGGGGTG the switch fluorescence ratio was 1.03 ± 0.06.
AATGACTCGT was tested, and the switch fluorescence ratio was 0.974 ± 0.01.
TTATAGGCAG gave a switch fluorescence ratio of 0.987 ± 0.01.
With TTCGCTAGTG the switch fluorescence ratio was 0.98 ± 0.033.
In the case of GAGTTTGGTA, the switch fluorescence ratio is reported as 0.96 ± 0.027.
In the case of GGGCCTAGGA, the switch fluorescence ratio is reported as 1.028 ± 0.0069.
CATGGGTTAT was tested, and the switch fluorescence ratio was 0.981 ± 0.05.
With TGGGGGTTCG the switch fluorescence ratio was 0.99 ± 0.035.
Sequence TCGCCGGGCG has a switch fluorescence ratio of 0.993 ± 0.0075.
TTAGGCTGCG showed a switch fluorescence ratio of 1.06 ± 0.1.
GATGTAATTG showed a switch fluorescence ratio of 0.9822 ± 0.0094.
In the case of TGTTGCCCCT, the switch fluorescence ratio is reported as 1.02 ± 0.051.
CGTACGGCAG was tested, and the switch fluorescence ratio was 0.9978 ± 0.0052.
Sequence TTAGAAGCCT has a switch fluorescence ratio of 1.14 ± 0.02.
CGGCTCGATA was tested, and the switch fluorescence ratio was 0.976 ± 0.02.
Sequence GATAGCATTT has a switch fluorescence ratio of 1.04 ± 0.039.
TATTCTGGAT was tested, and the switch fluorescence ratio was 0.993 ± 0.026.
Work on AAGGGTAATG yielded a switch fluorescence ratio of 0.9875 ± 0.0042.
TCTTTTTTTC was tested, and the switch fluorescence ratio was 1.02 ± 0.034.
Work on GGGTCTTTGA yielded a switch fluorescence ratio of 1.03 ± 0.041.
TTAGATGGGG gave a switch fluorescence ratio of 1.01 ± 0.11.
CCACGATTAC showed a switch fluorescence ratio of 3.44 ± 1.3.
With GTTGCTATGA the switch fluorescence ratio was 1.02 ± 0.017.
For TGCGGCTTCA, the switch fluorescence ratio was 1.01 ± 0.016.
Sequence TAATTATCCG has a switch fluorescence ratio of 1.05 ± 0.044.
In the case of AGATACTTTC, the switch fluorescence ratio is reported as 1.03 ± 0.024.
AAGATGACTA showed a switch fluorescence ratio of 0.986 ± 0.042.
In the case of ATAATATGGT, the switch fluorescence ratio is reported as 0.9838 ± 0.0036.
Sequence TAAATGTCTT has a switch fluorescence ratio of 1.025 ± 0.0077.
In the case of AAGGGGGTAT, the switch fluorescence ratio is reported as 0.999 ± 0.043.
Work on CTGTGGCAGC yielded a switch fluorescence ratio of 1.033 ± 0.0099.
Work on CGGACTTTTC yielded a switch fluorescence ratio of 1.042 ± 0.0018.
With GGTCGTTTTT the switch fluorescence ratio was 1.044 ± 0.0029.
For CCATTATGGT, the switch fluorescence ratio was 1.01 ± 0.03.
For CTGTATATCT, the switch fluorescence ratio was 1.02 ± 0.022.
GGTCGTGGCA gave a switch fluorescence ratio of 0.969 ± 0.028.
Sequence TGTGAACGTA has a switch fluorescence ratio of 1.01 ± 0.052.
AGGAATAAAA gave a switch fluorescence ratio of 0.961 ± 0.1.
GCTTTGTGAT was tested, and the switch fluorescence ratio was 1.01 ± 0.066.
For TATAATACTT, the switch fluorescence ratio was 1.026 ± 0.0038.
With AGGCTGGGGA the switch fluorescence ratio was 1.01 ± 0.057.
ATTCAATTGT showed a switch fluorescence ratio of 0.974 ± 0.013.
With GGAGTAAGAG the switch fluorescence ratio was 1.11 ± 0.21.
CGATATAAGA was tested, and the switch fluorescence ratio was 0.998 ± 0.054.
ATGAGCTGTG gave a switch fluorescence ratio of 1.01 ± 0.056.
TATCGCTCAT showed a switch fluorescence ratio of 0.9765 ± 0.0073.
For ATAAGTACTC, the switch fluorescence ratio was 1.28 ± 0.1.
Sequence ATTCTGTACG has a switch fluorescence ratio of 1.05 ± 0.023.
For AGGAAAGTTT, the switch fluorescence ratio was 0.955 ± 0.028.
TTTTGGGGCT was tested, and the switch fluorescence ratio was 1.01 ± 0.03.
Work on GGGATAAAGT yielded a switch fluorescence ratio of 0.988 ± 0.022.
In the case of GGATTAGGTT, the switch fluorescence ratio is reported as 1.01 ± 0.011.
With GGGTTATGAG the switch fluorescence ratio was 0.977 ± 0.06.
ACGTGTGTGG gave a switch fluorescence ratio of 0.989 ± 0.017.
CCACGGGATG showed a switch fluorescence ratio of 1.09 ± 0.03.
For GAGATTGGGG, the switch fluorescence ratio was 0.99 ± 0.022.
For CGGTATAACT, the switch fluorescence ratio was 1 ± 0.011.
TTTCCATTGT gave a switch fluorescence ratio of 0.995 ± 0.048.
In the case of AAATCGGAAA, the switch fluorescence ratio is reported as 0.98 ± 0.028.
Work on TTGGGGTGGA yielded a switch fluorescence ratio of 0.99 ± 0.018.
With GTTTTTCTGG the switch fluorescence ratio was 0.9738 ± 0.0078.
TTAAGCGAAT showed a switch fluorescence ratio of 1.002 ± 0.0059.
In the case of CAGGGCCATA, the switch fluorescence ratio is reported as 1.02 ± 0.0042.
For ACTAATGTAT, the switch fluorescence ratio was 1 ± 0.014.
In the case of AAGTCGGGGC, the switch fluorescence ratio is reported as 1 ± 0.038.
CATCATGGTC showed a switch fluorescence ratio of 1.03 ± 0.054.
With AGTCTGGATG the switch fluorescence ratio was 0.96 ± 0.02.
In the case of AGGGCCTGGG, the switch fluorescence ratio is reported as 0.999 ± 0.04.
TTTTTCGGAT showed a switch fluorescence ratio of 1.05 ± 0.14.
GAATTTATAT gave a switch fluorescence ratio of 0.998 ± 0.0032.
CTCTTAGCTA showed a switch fluorescence ratio of 1.17 ± 0.019.
In the case of CTGTGTGGAG, the switch fluorescence ratio is reported as 0.991 ± 0.013.
TTAGGTTATC was tested, and the switch fluorescence ratio was 1.01 ± 0.016.
Work on AGGTAATCAT yielded a switch fluorescence ratio of 1.01 ± 0.05.
Work on AACAATGGGG yielded a switch fluorescence ratio of 1.03 ± 0.077.
